From paper PMC8683410 (Translational Psychiatry, 2021)
Several values for one entry are separate records, joined by “and”; a condition that tells them apart may be missing. Identical values can stand only once. Each block holds one binder with its values, some of them ahead of it.

Assays:
[1] = biological target: T1, His6-tagged human DISC1 C-region (residues 691-836) (human), Q9NRI5; assay: negative-stain transmission electron microscopy; 10 µM protein on carbon-coated copper grids, 1% uranyl acetate; 2D classification and 3D reconstruction (RELION); details: remark: other sources report otherwise
T1 chain: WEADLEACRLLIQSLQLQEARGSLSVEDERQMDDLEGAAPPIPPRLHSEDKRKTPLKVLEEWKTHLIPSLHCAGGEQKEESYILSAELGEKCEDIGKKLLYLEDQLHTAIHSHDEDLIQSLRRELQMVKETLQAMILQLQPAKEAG

[2] = biological target: T1, His6-tagged human DISC1 C-region …; assay: dynamic light scattering; His6-C-region, 10-90 µM at 37 °C; samples centrifuged at 21,000 x g before measurement; details: remark: other sources report otherwise
[3] = biological target: T1, His6-tagged human DISC1 C-region …; assay: dynamic light scattering; critical concentration of C-region monomers/oligomers in equilibrium with the fibril suspension, taken as the detection limit of the instrument; 1D crystallization model (KF = 1/[C]); details: remark: other sources report otherwise
[4] = biological target: T1, His6-tagged human DISC1 C-region …; assay: ITC; no titration: heat flow of the spontaneous association of the protein solution monitored in the cell (iTC-200, 300 rpm); 10-50 µM at 37 °C, 10 µM at 20-60 °C; dH from the peak area normalised to the protein amount; details: remark: other sources report otherwise
lissencephaly 1 (LIS1) [5] = biological target: T2, lissencephaly 1 (LIS1) (UniProt P43034 1-410); assay: SPR; oligomeric/fibrillar C-region (His-C-region incubated at 4 °C for two weeks, MBP-C-region for two months) amine-coupled to a CM5 chip (250 RU); analytes 0.75-10 µM without regeneration; 25 °C, PBS pH 7.4; equilibrium responses fitted with Hill's equation; apparent affinities; details: both partners purified
T2 construct: lissencephaly 1 (LIS1); source: E. coli C43 (DE3), purified (Ni2+-NTA, Superdex 200 SEC)
T2 sequence (looked up): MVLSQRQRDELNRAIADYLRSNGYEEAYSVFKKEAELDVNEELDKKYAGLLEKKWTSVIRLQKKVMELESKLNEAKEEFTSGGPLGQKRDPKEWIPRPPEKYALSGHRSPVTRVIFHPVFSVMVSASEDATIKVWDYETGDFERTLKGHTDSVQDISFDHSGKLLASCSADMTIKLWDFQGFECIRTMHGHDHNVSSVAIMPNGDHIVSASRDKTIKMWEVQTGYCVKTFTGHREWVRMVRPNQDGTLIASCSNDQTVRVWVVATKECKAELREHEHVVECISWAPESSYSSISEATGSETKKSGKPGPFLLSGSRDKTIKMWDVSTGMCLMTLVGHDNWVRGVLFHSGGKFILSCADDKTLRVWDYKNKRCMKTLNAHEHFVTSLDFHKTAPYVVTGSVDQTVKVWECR

NDE-like 1 (NDEL1) [6] = biological target: T3, NDE-like 1 (NDEL1) (UniProt Q9GZM8 1-345); assay: as above; details: both partners purified
[7] = biological target: T4, MBP-His6-fused human DISC1 C-region (residues 691-836) (human), Q9NRI5; assay: dynamic light scattering; MBP-tagged C-region in solution at different temperatures (Fig. S1); details: remark: other sources report otherwise
T4 chain: T1 chain

lissencephaly 1 (LIS1) [8] = biological target: T2, lissencephaly 1 (LIS1); assay: SPR; freshly prepared MBP-C-region (representing the monomer) amine-coupled to a CM5 chip (250 RU); analytes 0.75-10 µM without regeneration; 25 °C, PBS pH 7.4 (20 mM Na-phosphate, 150 mM NaCl); equilibrium responses fitted with Hill's equation; details: both partners purified
NDE-like 1 (NDEL1) [9] = biological target: T3, NDE-like 1 (NDEL1); assay: as above; details: both partners purified
NDE-like 1 (NDEL1) [10] = biological target: T3, NDE-like 1 (NDEL1); assay: as above; details: both partners purified; remark: listed apart in the source

T3 sequence (Q9GZM8 whole entry, the tested form may be a part): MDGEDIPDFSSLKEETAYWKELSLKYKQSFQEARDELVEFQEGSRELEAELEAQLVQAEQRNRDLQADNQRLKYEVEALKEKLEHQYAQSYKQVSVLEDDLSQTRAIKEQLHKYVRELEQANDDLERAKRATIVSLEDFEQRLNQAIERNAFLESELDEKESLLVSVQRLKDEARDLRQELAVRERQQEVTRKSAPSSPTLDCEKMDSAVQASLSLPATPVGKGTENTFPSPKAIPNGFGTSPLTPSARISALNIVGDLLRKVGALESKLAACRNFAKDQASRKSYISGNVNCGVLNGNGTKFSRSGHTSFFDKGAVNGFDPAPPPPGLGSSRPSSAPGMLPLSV

B1: His6-tagged human DISC1 C-region (residues 691-836), Q9NRI5 691-836 (domain or fragment)
chain: T1 chain
- stoichiometry N [1]: 4 and 5 and 6
- stoichiometry N [2]: 4
- critical concentration (1/KF of fibril formation) [3]: 750 nM
- dH [4]: -71.2 kcal/mol

B2: His6-tagged human DISC1 C-region (residues 691-836) (domain or fragment, UniProt Q9NRI5 691-836, looked up)
chain: T1 chain
notes: disrupted in schizophrenia 1 (DISC1), human, C-region, residues 691-836 of full-length human DISC1; Vector pESPRIT002; Theoretical mass of the tagged protein 19.4 kDa; for SPR it was incubated at 4 °C for two weeks (oligomer/fibril); also called His6-C-region; His-C-region; source: E. coli BL21 (DE3) pLysE T1R, purified (Co2+-NTA, Superdex 200 SEC); not shown: His6, N-terminal, kept
- Kd (lissencephaly 1 (LIS1) [5]): 0.031 µM
- Kd (NDE-like 1 (NDEL1) [6]): 13 µM

The next lines start with the values.

- stoichiometry N [7]: 4
B3: MBP-His6-fused human DISC1 C-region (residues 691-836), Q9NRI5 691-836 (domain or fragment)
chain: T1 chain

- Kd (lissencephaly 1 (LIS1) [5]): 0.031 µM
- Kd (NDE-like 1 (NDEL1) [6]): 14 µM
- Kd (lissencephaly 1 (LIS1) [8]): 0.071 µM
- Kd (NDE-like 1 (NDEL1) [9]): 20 µM
- Kd (NDE-like 1 (NDEL1) [10]): 28 µM
B4: MBP-His6-fused human DISC1 C-region (residues 691-836) (domain or fragment, UniProt Q9NRI5 691-836, looked up)
chain: T1 chain
notes: disrupted in schizophrenia 1 (DISC1), human, C-region, residues 691-836 of full-length human DISC1; Cloned in pET-15b; Used freshly prepared to represent the monomer, and after two months at 4 °C as oligomer/fibril, in SPR; also called MBP-C-region; MBP-C region; source: E. coli (DE3) C43, purified (Co2+-NTA, amylose column); not shown: MBP, N-terminal, kept; His6, N-terminal, kept
